Experiment [1] concerns the target Purified Fab prepared from a papain-digested IgG mAb. Kind of experiment: column chromatography, ligand coupled to agarose beads at 8.8 mg/ml, 1 mg/ml Fab feed, residence time 4 min.
For experiment [2], the target named is human polyclonal IgG (Gammanorm) (human). Kind of experiment: SPR (Biacore), retained IgG binding capacity after 100 NaOH cycles against reference Protein L. Background: SPR reads the build-up and loss of mass on a sensor chip optically.
For experiment [3], the target named is Purified Dab prepared from heat-treated E. coli supernatant. Kind of experiment: column chromatography, ligand coupled to agarose beads at 8.8 mg/ml, 1 mg/ml Dab feed, residence time 4 min.
Experiment [4] concerns the target human polyclonal IgG (Gammanorm) (human). The experiment is described as follows: SPR (Biacore), ligand amine-coupled to CM5 chip, 1 mg/ml IgG flowed; IgG binding signal left after 100 cycles of 100 mM NaOH, 10 min.
Experiment [5] deals with Purified Dab prepared from heat-treated E. coli supernatant. The experiment is described as follows: column chromatography, ligand coupled to agarose beads at 9.5 mg/ml, 1 mg/ml Dab feed, residence time 4 min.
Experiment [6] has as its target Purified Fab prepared from a papain-digested IgG mAb. Kind of experiment: column chromatography, ligand coupled to agarose beads at 9.5 mg/ml, 1 mg/ml Fab feed, residence time 4 min.
Experiment [7] addresses human polyclonal IgG (Gammanorm) (human). The experiment is described as follows: SPR (Biacore), retained IgG binding capacity after 96 NaOH cycles against reference Protein L.
Experiment [8] has the same target. Kind of experiment: SPR (Biacore), ligand amine-coupled to CM5 chip, 1 mg/ml IgG flowed; IgG binding signal left after 96 cycles of 100 mM NaOH, 10 min.
For experiment [9] the target is unchanged. The experiment is described as follows: SPR (Biacore), retained IgG binding capacity after 96 NaOH cycles against reference Domain 3.
Experiment [10] shares this target. Kind of experiment: SPR (Biacore), retained IgG binding capacity after 96 NaOH cycles against reference Domain 3 (second series).
The target in experiment [11] is Purified Fab prepared from a papain-digested IgG mAb. The experiment is described as follows: column chromatography, ligand coupled to agarose beads at 11.0 mg/ml, 1 mg/ml Fab feed, residence time 4 min.
Experiment [12] has as its target Purified Dab prepared from heat-treated E. coli supernatant. Kind of experiment: column chromatography, ligand coupled to agarose beads at 11.0 mg/ml, 1 mg/ml Dab feed, residence time 4 min.
For experiment [13], the target named is human polyclonal IgG (Gammanorm) (human). The experiment is described as follows: SPR (Biacore), ligand amine-coupled to CM5 chip, 1 mg/ml IgG flowed; IgG binding signal left after 96 cycles of 100 mM NaOH, 10 min (second series, with the Q19 mutants).

Where a chain is given by its changes, count along the chain named. Numbers in names are those of the source.

Experimental findings from patent US20170320919A1 are described below.

B1: D3(N10Q, N45A, N60Q)4 (designed binder)
chain: PKEEVTIKAQLIYADGKTQTAEFKGTFEEATAEAYRYADLLAKEAGKYTVDVADKGYTLQIKFAGKEKTPEEPKEEVTIKAQLIYADGKTQTAEFKGTFEEATAEAYRYADLLAKEAGKYTVDVADKGYTLQIKFAGKEKTPEEPKEEVTIKAQLIYADGKTQTAEFKGTFEEATAEAYRYADLLAKEAGKYTVDVADKGYTLQIKFAGKEKTPEEPKEEVTIKAQLIYADGKTQTAEFKGTFEEATAEAYRYADLLAKEAGKYTVDVADKGYTLQIKFAGKEKTPEE
Molecule B1 displayed a QB10 Fab (dynamic binding capacity at 10% breakthrough) in experiment [1] of 19.3 mg/mL. Besides, the Sample/ref. ratio in experiment [2] is 2.61. Moreover, the QB10 Dab (dynamic binding capacity at 10% breakthrough) in experiment [3] came to 15.9 mg/mL. The Retained capacity after 100 cycles (%) in experiment [4] is 60%.

B2: D3(N10Q, N45A, N60Q)2 (designed binder)
chain: PKEEVTIKAQLIYADGKTQTAEFKGTFEEATAEAYRYADLLAKEAGKYTVDVADKGYTLQIKFAGKEKTPEEPKEEVTIKAQLIYADGKTQTAEFKGTFEEATAEAYRYADLLAKEAGKYTVDVADKGYTLQIKFAGKEKTPEE
On to B2, for which, in experiment [5], the QB10 Dab (dynamic binding capacity at 10% breakthrough) turned out to be 15.4 mg/mL. Also, the Sample/ref. ratio in experiment [2] was 2.56. The QB10 Fab (dynamic binding capacity at 10% breakthrough) in experiment [6] was 19.3 mg/mL. For the same molecule, the Retained capacity after 100 cycles (%) in experiment [4] was found to be 59%.

B3: Protein L (protein)
chain: AIHNRAKEETPETPETDSEEEVTIKANLIFANGSTQTAEFKGTFEKATSEAYAYADTLKKDNGEYTVDVADKGYTLNIKFAGKEKTPEEPKEEVTIKANLIYADGKTQTAEFKGTFEEATAEAYRYADALKKDNGEYTVDVADKGYTLNIKFAGKEKTPEEPKEEVTIKANLIYADGKTQTAEFKGTFEEATAEAYRYADLLAKENGKYTVDVADKGYTLNIKFAGKEKTPEEPKEEVTIKANLIYADGKTQTAEFKGTFAEATAEAYRYADLLAKENGKYTADLEDGGYTINIRFAGKKVDEKPEE
For the molecule B3, the Sample/ref. ratio in experiment [7] and in [2] was 1 in each case. In addition, in experiment [8], the Retained capacity after 96 cycles (%) was 28%. The molecule also displayed a Retained capacity after 100 cycles (%) in experiment [4] of 23%.

B4: D3(N45A)1 (designed binder)
chain: PKEEVTIKANLIYADGKTQTAEFKGTFEEATAEAYRYADLLAKEAGKYTVDVADKGYTLNIKFAGKEKTPEE
Regarding B4, the Sample/ref. ratio in experiment [9] came to 1.42. In experiment [8], the Retained capacity after 96 cycles (%) worked out at 44%.

B5: D3(N45A, N60Q)1 (designed binder)
chain: B4 chain with N60Q
As to B5, the Sample/ref. ratio in experiment [9] stood at 1.9. Further, in experiment [8], the Retained capacity after 96 cycles (%) worked out at 59%.

B6: D3(N10Q, N45A)1 (designed binder)
chain: B4 chain with N10Q
Turning to B6, the Sample/ref. ratio in experiment [9] was 1.55. Besides, the Retained capacity after 96 cycles (%) in experiment [8] was 48%.

B7: D3(Q19E)1 (designed binder)
chain: B4 chain with Q19E, A45N
Take B7: the Retained capacity after 96 cycles (%) in experiment [8] came out at 31%. In experiment [10], the Sample/ref. ratio turned out to be 1.11.

B8: D3(N10Q, N45A, N60Q)1 (designed binder)
chain: B4 chain with N10Q, N60Q
In the case of B8, in [9], the Sample/ref. ratio amounted to 1.9. In experiment [8], this molecule showed a Retained capacity after 96 cycles (%) of 59%.

B9: D3(Q19A)1 (designed binder)
chain: B4 chain with Q19A, A45N
Take B9: in [8], the Retained capacity after 96 cycles (%) was 28%. Besides, the Sample/ref. ratio in [10] amounted to 1.

B10: Domain 1 (D1) (protein)
chain: AQVSEEEVTIKANLIFANGSTQTAEFKGTFEKATSEAYAYADTLKKDNGEYTVDVADKGYTLNIKFAGKEKTPEEC
On to B10, for which, in experiment [9], the Sample/ref. ratio is 0.42. Also, in experiment [8], the Retained capacity after 96 cycles (%) worked out at 13%.

B11: D3(N10Q, N45A, N60Q)6 (designed binder)
chain: PKEEVTIKAQLIYADGKTQTAEFKGTFEEATAEAYRYADLLAKEAGKYTVDVADKGYTLQIKFAGKEKTPEEPKEEVTIKAQLIYADGKTQTAEFKGTFEEATAEAYRYADLLAKEAGKYTVDVADKGYTLQIKFAGKEKTPEEPKEEVTIKAQLIYADGKTQTAEFKGTFEEATAEAYRYADLLAKEAGKYTVDVADKGYTLQIKFAGKEKTPEEPKEEVTIKAQLIYADGKTQTAEFKGTFEEATAEAYRYADLLAKEAGKYTVDVADKGYTLQIKFAGKEKTPEEPKEEVTIKAQLIYADGKTQTAEFKGTFEEATAEAYRYADLLAKEAGKYTVDVADKGYTLQIKFAGKEKTPEEPKEEVTIKAQLIYADGKTQTAEFKGTFEEATAEAYRYADLLAKEAGKYTVDVADKGYTLQIKFAGKEKTPEE
For B11, in experiment [11], the QB10 Fab (dynamic binding capacity at 10% breakthrough) turned out to be 21.1 mg/mL. The Sample/ref. ratio in [2] came out at 2.52. The same molecule showed a QB10 Dab (dynamic binding capacity at 10% breakthrough) in [12] of 16.7 mg/mL. This molecule also returned a Retained capacity after 100 cycles (%) in experiment [4] of 58%.

B12: D3(N10Q, N45A, N60Q)6-cys (designed binder)
chain: PKEEVTIKAQLIYADGKTQTAEFKGTFEEATAEAYRYADLLAKEAGKYTVDVADKGYTLQIKFAGKEKTPEEPKEEVTIKAQLIYADGKTQTAEFKGTFEEATAEAYRYADLLAKEAGKYTVDVADKGYTLQIKFAGKEKTPEEPKEEVTIKAQLIYADGKTQTAEFKGTFEEATAEAYRYADLLAKEAGKYTVDVADKGYTLQIKFAGKEKTPEEPKEEVTIKAQLIYADGKTQTAEFKGTFEEATAEAYRYADLLAKEAGKYTVDVADKGYTLQIKFAGKEKTPEEPKEEVTIKAQLIYADGKTQTAEFKGTFEEATAEAYRYADLLAKEAGKYTVDVADKGYTLQIKFAGKEKTPEEPKEEVTIKAQLIYADGKTQTAEFKGTFEEATAEAYRYADLLAKEAGKYTVDVADKGYTLQIKFAGKEKTPEEC
Regarding B12, the Sample/ref. ratio in experiment [2] was 2.43. This molecule also yielded a Retained capacity after 100 cycles (%) in experiment [4] of 56%.

B13: Domain 3 (D3) (protein)
chain: AQVPKEEVTIKANLIYADGKTQTAEFKGTFEEATAEAYRYADLLAKENGKYTVDVADKGYTLNIKFAGKEKTPEEC
With B13, the Sample/ref. ratio in experiment [9] and in experiment [10] was 1 each time. Also, the Retained capacity after 96 cycles (%) in experiment [13] was 28%; in experiment [8], 31%.

B14: Domain 2 (D2) (protein)
chain: B13 chain with T34A, L43A, A45K, E47D, K50E
On to B14, for which the Sample/ref. ratio in experiment [9] was 0.71. Moreover, in [8], the Retained capacity after 96 cycles (%) stood at 22%.

B15: Domain 3 tetramer (designed binder)
chain: PKEEVTIKANLIYADGKTQTAEFKGTFEEATAEAYRYADLLAKENGKYTVDVADKGYTLNIKFAGKEKTPEEPKEEVTIKANLIYADGKTQTAEFKGTFEEATAEAYRYADLLAKENGKYTVDVADKGYTLNIKFAGKEKTPEEPKEEVTIKANLIYADGKTQTAEFKGTFEEATAEAYRYADLLAKENGKYTVDVADKGYTLNIKFAGKEKTPEEPKEEVTIKANLIYADGKTQTAEFKGTFEEATAEAYRYADLLAKENGKYTVDVADKGYTLNIKFAGKEKTPEE
Turning to B15, in experiment [7], the Sample/ref. ratio is 1.36. In addition, in experiment [8], the Retained capacity after 96 cycles (%) stood at 38%.

B16: Domain 4 (D4) (protein)
chain: AQVPKEEVTIKANLIYADGKTQTAEFKGTFAEATAEAYRYADLLAKENGKYTADLEDGGYTINIRFAGKKVDEKPEEC
For the molecule B16, the Sample/ref. ratio in experiment [9] was 0.84. The same molecule gave a Retained capacity after 96 cycles (%) in experiment [8] of 26%.

B17: D3(N10Q, N45A, N60Q)2-cys (designed binder)
chain: PKEEVTIKAQLIYADGKTQTAEFKGTFEEATAEAYRYADLLAKEAGKYTVDVADKGYTLQIKFAGKEKTPEEPKEEVTIKAQLIYADGKTQTAEFKGTFEEATAEAYRYADLLAKEAGKYTVDVADKGYTLQIKFAGKEKTPEEC
For B17, the Sample/ref. ratio in [2] was 2.56. In addition, in experiment [4], the Retained capacity after 100 cycles (%) stood at 59%.

B18: D3(N10Q, N45A, N60Q)4-cys (designed binder)
chain: PKEEVTIKAQLIYADGKTQTAEFKGTFEEATAEAYRYADLLAKEAGKYTVDVADKGYTLQIKFAGKEKTPEEPKEEVTIKAQLIYADGKTQTAEFKGTFEEATAEAYRYADLLAKEAGKYTVDVADKGYTLQIKFAGKEKTPEEPKEEVTIKAQLIYADGKTQTAEFKGTFEEATAEAYRYADLLAKEAGKYTVDVADKGYTLQIKFAGKEKTPEEPKEEVTIKAQLIYADGKTQTAEFKGTFEEATAEAYRYADLLAKEAGKYTVDVADKGYTLQIKFAGKEKTPEEC
As to B18, the Sample/ref. ratio in experiment [2] was found to be 2.35. Moreover, the Retained capacity after 100 cycles (%) in [4] amounted to 54%.
